US20240025971A1

Key:
[1] = biological target: SARS-CoV-2 Spike (S) trimer (SARS-CoV-2) (UniProt P0DTC2); test: ELISA, S trimer coated, 1:50 dilution
[2] = biological target: SARS-CoV-1 spike (pseudovirus) (SARS-CoV-1) (UniProt P59594); test: cell-based or functional assay
[3] = biological target: SARS-CoV-2 Wuhan-1 full-length Spike protein (SARS-CoV-2) (UniProt P0DTC2); test: cell-based or functional assay

CB-6 (AB-009264) (antibody)
Optical Density (OD; 450 nm) [1]: 2.81 OD450

Anti-Nucleocapsid (Neg Control) (antibody)
Pseudovirus Neutralization [2]: > 50 µg/mL | Pseudovirus Neutralization [3]: > 50 µg/mL

CA-1 (AB-009265) (antibody)
Optical Density (OD; 450 nm) [1]: 2.74 OD450
